For 1 substance, proportion of CD8+ T cells specifically recognized by OVA (tetramer-positive) results are on record in patent US20210308260A1.

In this assay the target is OVA-specific T-cell antigen receptor of OT1 transgenic mice (mouse). Description: flow cytometry, OVA tetramer staining of peripheral blood CD8+ T cells of OT1 mice. In general terms: In flow cytometry, cells or beads pass a laser one at a time.

On to OVA tetramer (peptide-MHC), for which the proportion of CD8+ T cells specifically recognized by OVA (tetramer-positive) worked out at 95.3%.
